Experimental data reported in article PMC7357788, “Overlapping functions and protein-protein interactions of LRR-extensins in Arabidopsis” (PLoS Genetics, 2020).
Entries after “also recorded” stand apart in the source; their conditions may differ. Ends that are not written are not given here.

Assays:
[1] = test system: LRX1^ΔE; assay: Co-IP of LRX1^ΔE-HA with RALF1-FLAG; assay type: binding, Arabidopsis thaliana; settings: Co-IP and immunoblotting, transient expression in N. benthamiana
Protocol: Here, we tested binding of RALF1 to LRX1.
For pulldown and Co-IP analysis of the different constructs indicated in the experiments DNA was infiltrated into Nicotiana benthamiana leaves, and after 48 hrs, the leaves were excised and ground in liquid nitrogen as described in [62]. Two hundred mg of tissue powder was re-suspended in 500 μL extraction buffer [200 mM Tris-HCl (pH 7.5), 150 mM NaCl, 1 mM PMSF, protease inhibitor and 0.5% Triton X-100]. The suspension was incubated on ice for 30 minutes and then centrifuged at 11,000 rpm for 20 minutes at 4°C. The supernatant (200 μL) was then incubated with 10 μL anti-HA (Thermo Scientific, 88837), or anti-FLAG magnetic beads overnight at 4°C on a rotating shaker. If RALF1 peptide was added, the peptide was diluted in such way that for every sample 1μL of peptide was added to the protein extracts. After incubation, the beads were washed five times with the wash buffer (extraction buffer containing 0.05% Triton X-100) and boiled in SDS-PAGE loading buffer for 15 minutes at 75°C. The immunoprecipitates were then run on an SDS-PAGE gel and transferred to nitrocellulose membrane to perform immunoblotting using the following antibodies: anti-FLAG M2 (Sigma-Aldrich, F3165), anti-GFP (Biolegend, 902601), anti-HA-HRP 3F10 (Roche, 12 013 819 001) and anti-mouse-HRP (Sigma Aldrich, A 4416). […]

[2] = test system: FLS2-BAK1; settings: ref [17]; cited from earlier work
Text: Different LRXs bind an overlapping but not identical array of RALF peptides, and the full binding spectrum of the different LRXs might be even broader. One reason for the distinct RALF binding spectrum of LRXs is based on their expression pattern. […] It can be speculated that the diverse affinities of RALFs and LRXs contribute to the specificities of the plant’s response to different RALF peptides that have distinct biological activities [[17],[18],[19],[20],[26 ...

[3] = test system: LRX3, LRX4, and LRX5; settings: vegetative tissues; ref [40],[41]; cited from earlier work
Text: LRX proteins were recently identified as high-affinity binding sites for RALF peptides, with the binding spectrum differing among the LRXs. […] Whether and how the binding of RALFs and FER to LRXs influences the interaction of these proteins remains to be investigated. It is also unknown to what extent the different LRXs are functionally similar and whether they share FER as a common interaction ...

[4] = test system: FER^ECD; assay: Yeast-two-hybrid LRX LRR domain-FER^ECD; assay type: binding, Arabidopsis thaliana; settings: Y2H, yeast strain PJ69-4A, LRR domains, -Trp, Leu, His, Ade drop-out medium containing 5 mM 3-AT
Text: The BD-LRX4 and AD-FER^ECD constructs for the Yeast-two-hybrid experiment were cloned as previously described, where NtermFER equals AD-FER^ECD and LRR4 equals BD-LRX4. For the BD-LRX1/2/3/5 constructs, the coding sequence of the LRR domain of the LRXs was amplified using primers (S3 Table) to introduce a BamHI and a XhoI site at the 5’ and 3’ end of the PCR fragments, respectively. These were cloned into pJET1.2 (Thermo Scientific) and correct clones were cut with BamHI and XhoI and ligated into pGBKT7 cut with BamHI and SalI. The AD-RALF1 construct was cloned into pJET1.2 (Thermo Scientific) by amplification of the coding sequence with the primers y2h_RALF1_F and y2h_RALF1_R. A correct clone was cut with EcoRI and XmaI and ligated into pGADT7 cut with EcoRI and XmaI.
Transformation of the yeast strain PJ69-4A [63] was done following standard procedures and quadruple drop-out medium lacking Leu, Trp, His, and Ade were used to screen for positive interactions after 4 days incubation at 30°C. Three different colonies containing both vectors were mixed and plated in triplicates on quadruple drop-out medium.
Supplementary file pgen.1008847.s001.pdf: S1 Fig Interaction of LRXs and FER in yeast-two-hybrid assays. […]

[5] = test system: FER^ECD; assay: Co-IP of LRX^ΔE with FER^ECD-Citrine; assay type: binding, Arabidopsis thaliana; settings: proteins expressed in N. benthamiana
Text: The root hair-localized LRX1 is so far the best characterized LRX protein and the lrx1 root hair mutant represents a convenient genetic system for analyses of LRX protein function. […] To this end, constructs encoding LRX1^ΔE-FLAG and the extracellular domain of FER fused to citrine (FER^ECD-Citrine) under the 35S promoter were expressed in tobacco for Co-IP experiments. […] The Y2H experiments were extended to other LRXs of vegetative tissues, namely the LRR domains of LRX2, LRX3, LRX4, and LRX5.
For pulldown and Co-IP analysis of the different constructs indicated in the experiments DNA was infiltrated into Nicotiana benthamiana leaves, and after 48 hrs, the leaves were excised and ground in liquid nitrogen as described in [62]. Two hundred mg of tissue powder was re-suspended in 500 μL extraction buffer [200 mM Tris-HCl (pH 7.5), 150 mM NaCl, 1 mM PMSF, protease inhibitor and 0.5% Triton X-100]. The suspension was incubated on ice for 30 minutes and then centrifuged at 11,000 rpm for 20 minutes at 4°C. The supernatant (200 μL) was then incubated with 10 μL anti-HA (Thermo Scientific, 88837), or anti-FLAG magnetic beads overnight at 4°C on a rotating shaker. If RALF1 peptide was added, the peptide was diluted in such way that for every sample 1μL of peptide was added to the protein extracts. […]

[6] = biological target: LRX1^ΔE-FLAG (Arabidopsis thaliana); assay: BLI; BLITZ; LRX^ΔE-FLAG mixed with anti-FLAG M2 antibody and loaded onto a protein A biosensor; synthetic RALF1 peptide added at 0.2-200 μM; association 120 s, dissociation 120 s; sample diluent buffer (Pall FortéBio)
[7] = biological target: LRX5^ΔE-FLAG (Arabidopsis thaliana) (UniProt Q9SN46); assay: as above
[8] = biological target: LRX4^ΔE-FLAG (Arabidopsis thaliana) (UniProt Q9LHF1); assay: as above
[9] = biological target: LRX3^ΔE-FLAG (Arabidopsis thaliana) (UniProt Q9T0K5); assay: as above

Sequence of LRX5^ΔE-FLAG (Arabidopsis thaliana) (Q9SN46 32-857, stated change not applied): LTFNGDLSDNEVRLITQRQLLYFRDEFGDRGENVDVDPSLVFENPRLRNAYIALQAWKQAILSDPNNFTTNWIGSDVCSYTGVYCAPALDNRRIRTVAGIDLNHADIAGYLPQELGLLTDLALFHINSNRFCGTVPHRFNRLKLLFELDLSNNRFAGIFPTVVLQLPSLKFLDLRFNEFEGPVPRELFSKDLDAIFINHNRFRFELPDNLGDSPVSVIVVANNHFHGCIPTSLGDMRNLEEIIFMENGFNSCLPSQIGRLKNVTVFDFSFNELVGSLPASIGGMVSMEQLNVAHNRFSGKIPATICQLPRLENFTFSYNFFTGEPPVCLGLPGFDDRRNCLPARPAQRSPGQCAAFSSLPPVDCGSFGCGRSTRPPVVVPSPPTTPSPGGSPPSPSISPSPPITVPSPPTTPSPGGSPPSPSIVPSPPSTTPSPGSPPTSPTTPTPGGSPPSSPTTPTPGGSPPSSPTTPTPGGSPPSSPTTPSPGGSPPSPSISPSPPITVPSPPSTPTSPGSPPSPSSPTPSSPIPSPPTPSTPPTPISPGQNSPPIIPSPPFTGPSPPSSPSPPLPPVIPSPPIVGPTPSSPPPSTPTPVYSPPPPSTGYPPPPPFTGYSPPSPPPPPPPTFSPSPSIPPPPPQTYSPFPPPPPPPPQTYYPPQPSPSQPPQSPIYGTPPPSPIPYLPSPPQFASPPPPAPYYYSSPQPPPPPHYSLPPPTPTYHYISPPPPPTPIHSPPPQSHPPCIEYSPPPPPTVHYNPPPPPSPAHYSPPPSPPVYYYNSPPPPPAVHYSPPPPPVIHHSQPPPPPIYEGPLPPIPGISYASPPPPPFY
Sequence of LRX4^ΔE-FLAG (Arabidopsis thaliana) (Q9LHF1 26-494, stated change not applied): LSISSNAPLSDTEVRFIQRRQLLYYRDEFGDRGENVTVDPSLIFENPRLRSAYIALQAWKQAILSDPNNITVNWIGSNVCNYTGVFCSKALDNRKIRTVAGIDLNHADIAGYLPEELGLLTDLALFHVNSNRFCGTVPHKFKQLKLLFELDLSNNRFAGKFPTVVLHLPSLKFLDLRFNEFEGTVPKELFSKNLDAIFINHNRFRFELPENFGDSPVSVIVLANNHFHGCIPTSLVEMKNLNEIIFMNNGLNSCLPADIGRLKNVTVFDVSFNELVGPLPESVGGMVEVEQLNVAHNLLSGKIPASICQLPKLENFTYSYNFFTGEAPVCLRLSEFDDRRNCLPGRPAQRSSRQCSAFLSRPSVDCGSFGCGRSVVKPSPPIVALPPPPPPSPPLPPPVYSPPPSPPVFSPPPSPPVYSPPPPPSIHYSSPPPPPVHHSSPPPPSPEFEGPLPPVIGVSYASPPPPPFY

RALF1-FLAG: FLAG-tagged RALF1 transiently expressed in N. benthamiana (ATTKYISYQSLKRNSVPCSRRGASYYNCQNGAQANPYSRGCSKIARCRS; ends and bridges not checked; also: FLAG tag, site not given here; UniProt Q9SRY3 72-120, looked up)
interaction with LRX1^ΔE [1]: showed interaction of the two proteins

RALF23: RALF peptide reported to be bound by LRX3, LRX4, and LRX5 (ATRRYISYGALRRNTIPCSRRGASYYNCRRGAQANPYSRGCSAITRCRRS; UniProt Q9LUS7 89-138, looked up)
effect on scaffolding function of FER [2]: inducing the dissociation of FLS2 from BAK1 | binding to LRX3, LRX4, and LRX5 [3]: reported to bind

B1: LRX1: LRR domain of LRX1 (BD-LRX1), gene At1g12040 (protein)
chain: MLFPPLRSLFLFTLLLSSVCFLQIKADHDDESDLGSDIKVDKRLKFENPKLRQAYIALQSWKKAIFSDPFNFTANWNGSDVCSYNGIYCAPSPSYPKTRVVAGIDLNHADMAGYLASELGLLSDLALFHINSNRFCGEVPLTFNRMKLLYELDLSNNRFVGKFPKVVLSLPSLKFLDLRYNEFEGKIPSKLFDRELDAIFLNHNRFRFGIPKNMGNSPVSALVLADNNLGGCIPGSIGQMGKTLNELILSNDNLTGCLPPQIGNLKKVTVFDITSNRLQGPLPSSVGNMKSLEELHVANNAFTGVIPPSICQLSNLENFTYSSNYFSGRPPICAASLLADIVVNGTMNCITGLARQRSDKQCSSLLARPVDCSKFGCYNIFSPPPPTFKMSPEVRTLPPPIYVYSSPPPPPSSKMSPTVRAYSPPPPPSSKMSPSVRAYSPPPPPYSKMSPSVRAYPPPPPPSPSPPPPYVYSSPPPPYVYSSPPPPPYVYSSPPPPPYVYSSPPPPYVYSSPPPPYVYSSPPPPPPSPPPPCPESSPPPPVVYYAPVTQSPPPPSPVYYPPVTQSPPPPSPVYYPPVTNSPPPPSPVYYPPVTYSPPPPSPVYYPQVTPSPPPPSPLYYPPVTPSPPPPSPVYYPPVTPSPPPPSPVYYPPVTPSPPPPSPVYYPSETQSPPPPTEYYYSPSQSPPPTKACKEGHPPQATPSYEPPPEYSYSSSPPPPSPTSYFPPMPSVSYDASPPPPPSYY
modifications: left off: Gal4 DNA-binding domain (from the vector pGBKT7), end not stated, kept
notes: LRR domain of LRX1 (BD-LRX1), gene At1g12040
interaction with FER^ECD [4]: confirmed in a yeast-two-hybrid (Y2H) experiment | interaction with FER^ECD ([5]; listed as LRX1^ΔE): show interaction with FER^ECD

B2: LRX2: LRR domain of LRX2 (BD-LRX2), gene At1g62440 (protein)
chain: MLLFPSTSLRLFFFLFLLFSSCFLQIRGDDDDDDISDDNIKVDPSLKFENPSLRQAYIALQSWKQAIFSDPFNFTANWNGSDVCSYNGIFCAPSPSSPKTRVVAGIDLNHADMAGYLPRELGLLTDLALFHLNSNRFCGEVPLTFKHMKLLFELDLSNNRFVGKFPNVVLSLPSLKFLDLRYNEFEGSIPSKLFDKELDAIFLNHNRFMFGIPENMGNSPVSALVLADNDLGGCIPGSIGLMGKTLNEIILSNDNLTGCLPPQIGNLKNVTVFDISFNRLSGPLPSSIGNMKSLEQLNVANNRFTGVIPSSICQLSNLENFTYSSNFFTGDAPRCVALLGDNVVVNGSMNCIDGKEDQRSSKECSSPASRSVDCSKFGCNNFFSPPPPSFKMSPTVRVLPPPPPSSKMSPTFRATPPPPSSKMSPSFRATPPPPSSKMSPSFRATPPPPSSKMSPSVKAYPPPPPPPEYEPSPPPPSSEMSPSVRAYPPPPPLSPPPPSPPPPYIYSSPPPPSPSPPPPYIYSSPPPVVNCPPTTQSPPPPKYEQTPSPREYYPSPSPPYYQYTSSPPPPTYYATQSPPPPPPPTYYAVQSPPPPPPVYYPPVTASPPPPPVYYTPVIQSPPPPPVYYSPVTQSPPPPPPVYYPPVTQSPPPSPVYYPPVTQSPPPPPVYYLPVTQSPPPPSPVYYPPVAKSPPPPSPVYYPPVTQSPPPPSTPVEYHPPASPNQSPPPEYQSPPPKGCNDSPSNDHHYQTPTPPSLPPPYYEDTPLPPIRGVSYASPPPPSIPYY
modifications: left off: Gal4 DNA-binding domain (from the vector pGBKT7), end not stated, kept
notes: LRR domain of LRX2 (BD-LRX2), gene At1g62440
interaction with FER^ECD [4]: showed interaction with FER^ECD

B3: LRX3^ΔE: LRX3 lacking the extensin domain (protein)
chain: LSISSDGGVLSDNEVRHIQRRQLLEFAERSVKITVDPSLNFENPRLRNAYIALQAWKQAILSDPNNFTSNWIGSNVCNYTGVFCSPALDNRKIRTVAGIDLNHADIAGYLPEELGLLSDLALFHVNSNRFCGTVPHRFNRLKLLFELDLSNNRFAGKFPTVVLQLPSLKFLDLRFNEFEGTVPKELFSKDLDAIFINHNRFRFELPENFGDSPVSVIVLANNRFHGCVPSSLVEMKNLNEIIFMNNGLNSCLPSDIGRLKNVTVFDVSFNELVGPLPESVGEMVSVEQLNVAHNMLSGKIPASICQLPKLENFTYSYNFFTGEAPVCLRLPEFDDRRNCLPGRPAQRSPGQCKAFLSRPPVNCGSFSCGRSVSPRPPVVTPLPPPSLPSPPPPAPIFSTPPTLTSPPPPSPPPPVYSPPPPPPPPPPVYSPPPPPPPPPPPPVYSPPPPPPPPPPPPPVYSPPPPSPPPPPPPVYSPPPPPPPPPPPPVYSPPPPPVYSSPPPPPSPAPTPVYCTRPPPPPPHSPPPPQFSPPPPEPYYYSSPPPPHSSPPPHSPPPPHSPPPPIYPYLSPPPPPTPVSSPPPTPVYSPPPPPPCIEPPPPPPCIEYSPPPPPPVVHYSSPPPPPVYYSSPPPPPVYYSSPPPPPPVHYSSPPPPEVHYHSPPPSPVHYSSPPPPPSAPCEESPPPAPVVHHSPPPPMVHHSPPPPVIHQSPPPPSPEYEGPLPPVIGVSYASPPPPPFY
modifications: left off: double FLAG, C-terminal, kept
notes: LRX3 lacking the extensin domain
interaction with FER^ECD [5]: revealed interaction of the two proteins; also recorded: show interaction with FER^ECD

ATTKYISYQSLKRNSVPCSRRGASYYNCQNGAQANPYSRGCSKIARCRS [synthetic RALF1 peptide]
Kd [6]: 4.5 nM | Kd [7]: 3.5 nM | Kd [8]: 5.5 nM | Kd [9]: 11000 nM
